Test results: US20220204643A1 (published 2022)
One block for each binder: values may come before it.

Key:
[1] = target: T1, leucine rich repeat containing 28, transcript variant 1 (human, UniProt Q86X40 1-367)
T1 construct: HuProt array protein, full-length recombinant from yeast; also called LRRC28

[2] = target: T2, Microtubule associated scaffold protein 1 (human, UniProt Q9ULD2 875-1270)
T2 construct: HuProt array protein, full-length recombinant from yeast; also called MTUS1
T2 sequence: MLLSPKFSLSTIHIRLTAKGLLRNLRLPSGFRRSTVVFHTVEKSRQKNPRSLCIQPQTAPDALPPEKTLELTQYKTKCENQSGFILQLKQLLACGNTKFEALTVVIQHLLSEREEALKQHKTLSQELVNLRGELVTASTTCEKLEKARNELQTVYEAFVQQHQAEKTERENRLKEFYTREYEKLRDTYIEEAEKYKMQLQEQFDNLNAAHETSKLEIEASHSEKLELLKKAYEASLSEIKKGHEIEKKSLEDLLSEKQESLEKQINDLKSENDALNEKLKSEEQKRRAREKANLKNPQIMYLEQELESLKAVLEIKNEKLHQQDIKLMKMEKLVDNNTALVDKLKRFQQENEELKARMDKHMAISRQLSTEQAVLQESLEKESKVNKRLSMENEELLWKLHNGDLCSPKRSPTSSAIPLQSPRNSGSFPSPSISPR

[3] = target: T3, RAD1 checkpoint DNA exonuclease, transcript variant 1 (human, UniProt O60671 1-282)
T3 construct: HuProt array protein, full-length recombinant from yeast
T3 sequence: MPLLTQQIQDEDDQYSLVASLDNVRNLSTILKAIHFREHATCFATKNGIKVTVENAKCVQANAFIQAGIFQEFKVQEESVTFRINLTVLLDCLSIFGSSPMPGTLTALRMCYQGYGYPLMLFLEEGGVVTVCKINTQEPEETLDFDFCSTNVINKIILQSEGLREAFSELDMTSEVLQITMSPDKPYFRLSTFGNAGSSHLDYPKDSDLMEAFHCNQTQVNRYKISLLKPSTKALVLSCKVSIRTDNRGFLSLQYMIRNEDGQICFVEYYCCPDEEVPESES

[4] = target: T4, coiled-coil domain containing 102A, transcript variant X1 (human, UniProt Q96A19 1-550)
T4 construct: HuProt array protein, full-length recombinant from yeast; also called CCDC102A

[5] = target: T5, NCCRP1, F-box associated domain containing (human, UniProt Q6ZVX7 1-275)
T5 construct: HuProt array protein, full-length recombinant from yeast
T5 sequence: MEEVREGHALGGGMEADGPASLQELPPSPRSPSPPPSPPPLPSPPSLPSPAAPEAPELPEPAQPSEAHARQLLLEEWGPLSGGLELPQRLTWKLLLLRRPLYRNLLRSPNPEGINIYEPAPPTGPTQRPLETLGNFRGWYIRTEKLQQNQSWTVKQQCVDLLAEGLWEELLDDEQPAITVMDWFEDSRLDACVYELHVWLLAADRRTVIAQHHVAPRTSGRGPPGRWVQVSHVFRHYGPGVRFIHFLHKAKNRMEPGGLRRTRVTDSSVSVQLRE

[6] = target: T6, growth factor receptor bound protein 2, transcript variant 1 (human, UniProt P62993 1-217)
T6 construct: HuProt array protein, full-length recombinant from yeast; also called GRB2

[7] = target: T7, LIM homeobox 5 (human, UniProt Q9H2C1 1-402)
T7 construct: HuProt array protein, full-length recombinant from yeast; also called LHX5
T7 sequence: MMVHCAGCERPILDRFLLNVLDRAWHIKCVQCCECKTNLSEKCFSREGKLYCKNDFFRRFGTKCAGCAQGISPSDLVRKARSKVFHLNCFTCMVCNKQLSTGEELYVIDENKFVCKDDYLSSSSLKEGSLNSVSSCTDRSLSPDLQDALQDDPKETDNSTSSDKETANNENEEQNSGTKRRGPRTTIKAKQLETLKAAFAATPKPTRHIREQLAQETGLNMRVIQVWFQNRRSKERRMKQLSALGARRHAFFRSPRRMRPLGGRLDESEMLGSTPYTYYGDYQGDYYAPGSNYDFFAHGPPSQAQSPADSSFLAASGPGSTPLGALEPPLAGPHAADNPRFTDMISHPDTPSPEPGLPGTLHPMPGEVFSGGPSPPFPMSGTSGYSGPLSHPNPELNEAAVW

[8] = target: T8, teashirt zinc finger homeobox 2, transcript variant 1 (human, UniProt Q9NRE2 1-1034)
T8 construct: HuProt array protein, full-length recombinant from yeast; also called TSHZ2
T8 sequence: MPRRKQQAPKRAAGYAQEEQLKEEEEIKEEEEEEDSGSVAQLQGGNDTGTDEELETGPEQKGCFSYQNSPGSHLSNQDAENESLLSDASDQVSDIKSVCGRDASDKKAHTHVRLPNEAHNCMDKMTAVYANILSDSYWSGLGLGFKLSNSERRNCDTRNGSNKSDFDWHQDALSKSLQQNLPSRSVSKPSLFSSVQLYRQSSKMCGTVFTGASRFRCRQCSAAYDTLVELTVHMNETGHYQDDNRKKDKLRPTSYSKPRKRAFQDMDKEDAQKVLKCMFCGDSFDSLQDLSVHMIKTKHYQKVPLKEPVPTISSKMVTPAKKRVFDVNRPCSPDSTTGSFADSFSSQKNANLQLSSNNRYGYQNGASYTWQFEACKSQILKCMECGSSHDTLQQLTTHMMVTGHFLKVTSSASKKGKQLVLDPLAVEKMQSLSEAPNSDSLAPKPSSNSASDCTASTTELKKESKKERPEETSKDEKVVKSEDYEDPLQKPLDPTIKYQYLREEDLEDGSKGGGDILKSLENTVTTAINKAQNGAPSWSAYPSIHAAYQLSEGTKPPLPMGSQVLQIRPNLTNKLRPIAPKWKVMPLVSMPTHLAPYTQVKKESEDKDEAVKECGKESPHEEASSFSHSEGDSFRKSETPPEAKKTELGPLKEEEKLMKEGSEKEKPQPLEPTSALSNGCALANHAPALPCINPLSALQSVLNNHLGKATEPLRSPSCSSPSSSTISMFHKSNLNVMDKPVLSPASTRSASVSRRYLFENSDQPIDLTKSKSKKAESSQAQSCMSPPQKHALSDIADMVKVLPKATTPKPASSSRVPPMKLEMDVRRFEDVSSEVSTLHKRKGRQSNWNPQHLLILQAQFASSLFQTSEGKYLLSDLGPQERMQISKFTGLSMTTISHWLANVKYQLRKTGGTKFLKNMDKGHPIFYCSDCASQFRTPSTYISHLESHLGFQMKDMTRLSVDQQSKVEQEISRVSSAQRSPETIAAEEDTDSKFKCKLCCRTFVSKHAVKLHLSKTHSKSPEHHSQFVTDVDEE

[9] = target: T9, Atpase secretory pathway ca2+ transporting 1 (human, UniProt P98194 1-909)
T9 construct: HuProt array protein, full-length recombinant from yeast; also called ATP2C1
T9 sequence: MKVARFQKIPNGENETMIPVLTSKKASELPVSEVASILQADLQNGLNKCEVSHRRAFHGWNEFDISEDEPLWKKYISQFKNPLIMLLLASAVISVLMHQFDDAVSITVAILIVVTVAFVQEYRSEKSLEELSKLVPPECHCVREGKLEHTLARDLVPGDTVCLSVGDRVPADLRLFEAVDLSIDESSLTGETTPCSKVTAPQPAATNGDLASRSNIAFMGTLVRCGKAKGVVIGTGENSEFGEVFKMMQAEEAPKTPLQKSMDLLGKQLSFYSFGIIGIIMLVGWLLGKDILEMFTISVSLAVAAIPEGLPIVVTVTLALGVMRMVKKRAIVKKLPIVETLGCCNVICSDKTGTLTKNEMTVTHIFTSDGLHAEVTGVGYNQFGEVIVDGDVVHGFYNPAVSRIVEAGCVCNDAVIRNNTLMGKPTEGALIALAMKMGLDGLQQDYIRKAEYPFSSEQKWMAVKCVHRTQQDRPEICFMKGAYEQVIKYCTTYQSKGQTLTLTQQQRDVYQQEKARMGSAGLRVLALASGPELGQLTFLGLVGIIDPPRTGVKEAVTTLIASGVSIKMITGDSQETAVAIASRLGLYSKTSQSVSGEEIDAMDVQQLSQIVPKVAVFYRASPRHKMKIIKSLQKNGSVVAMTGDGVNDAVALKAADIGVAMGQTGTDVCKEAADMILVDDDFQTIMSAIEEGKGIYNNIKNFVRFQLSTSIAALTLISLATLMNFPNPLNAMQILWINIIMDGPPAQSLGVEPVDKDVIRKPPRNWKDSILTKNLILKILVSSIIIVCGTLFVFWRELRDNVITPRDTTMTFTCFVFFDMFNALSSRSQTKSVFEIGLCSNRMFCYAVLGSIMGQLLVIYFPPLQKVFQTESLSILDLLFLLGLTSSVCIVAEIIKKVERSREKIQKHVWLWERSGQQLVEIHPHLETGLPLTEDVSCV

[10] = target: T10, RNA binding motif protein 47, transcript variant X10 (human, UniProt A0AV96 1-593)
T10 construct: HuProt array protein, full-length recombinant from yeast; also called RBM47
T10 sequence: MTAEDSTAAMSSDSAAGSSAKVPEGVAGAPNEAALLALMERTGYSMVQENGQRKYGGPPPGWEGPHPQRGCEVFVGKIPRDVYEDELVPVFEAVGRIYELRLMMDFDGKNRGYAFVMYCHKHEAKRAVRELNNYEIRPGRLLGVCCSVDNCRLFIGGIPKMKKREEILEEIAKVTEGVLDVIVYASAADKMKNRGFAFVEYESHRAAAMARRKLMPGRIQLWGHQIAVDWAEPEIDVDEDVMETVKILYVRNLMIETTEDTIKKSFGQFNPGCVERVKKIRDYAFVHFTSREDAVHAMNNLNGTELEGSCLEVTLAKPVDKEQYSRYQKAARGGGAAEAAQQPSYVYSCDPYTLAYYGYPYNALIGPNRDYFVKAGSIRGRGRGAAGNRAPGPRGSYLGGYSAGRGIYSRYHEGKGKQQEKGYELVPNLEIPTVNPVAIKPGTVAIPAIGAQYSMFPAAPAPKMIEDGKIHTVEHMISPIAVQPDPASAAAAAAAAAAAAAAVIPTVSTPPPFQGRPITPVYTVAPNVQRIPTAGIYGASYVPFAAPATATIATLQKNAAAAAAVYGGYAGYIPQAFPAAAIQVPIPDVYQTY

T1 sequence (Q86X40 whole entry, change not shown): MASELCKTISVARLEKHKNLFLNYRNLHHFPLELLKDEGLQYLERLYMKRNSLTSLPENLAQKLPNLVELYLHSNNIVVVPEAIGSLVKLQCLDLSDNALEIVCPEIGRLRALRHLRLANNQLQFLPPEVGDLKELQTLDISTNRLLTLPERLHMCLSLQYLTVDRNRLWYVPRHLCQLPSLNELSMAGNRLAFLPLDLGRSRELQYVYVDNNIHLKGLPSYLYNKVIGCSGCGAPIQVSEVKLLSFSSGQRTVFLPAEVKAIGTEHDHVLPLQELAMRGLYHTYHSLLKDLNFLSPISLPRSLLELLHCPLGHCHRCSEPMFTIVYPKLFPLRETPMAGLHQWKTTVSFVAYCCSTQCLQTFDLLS
T4 sequence (Q96A19 other isoform, or with tags, fused parts or gaps mutant limits assumed): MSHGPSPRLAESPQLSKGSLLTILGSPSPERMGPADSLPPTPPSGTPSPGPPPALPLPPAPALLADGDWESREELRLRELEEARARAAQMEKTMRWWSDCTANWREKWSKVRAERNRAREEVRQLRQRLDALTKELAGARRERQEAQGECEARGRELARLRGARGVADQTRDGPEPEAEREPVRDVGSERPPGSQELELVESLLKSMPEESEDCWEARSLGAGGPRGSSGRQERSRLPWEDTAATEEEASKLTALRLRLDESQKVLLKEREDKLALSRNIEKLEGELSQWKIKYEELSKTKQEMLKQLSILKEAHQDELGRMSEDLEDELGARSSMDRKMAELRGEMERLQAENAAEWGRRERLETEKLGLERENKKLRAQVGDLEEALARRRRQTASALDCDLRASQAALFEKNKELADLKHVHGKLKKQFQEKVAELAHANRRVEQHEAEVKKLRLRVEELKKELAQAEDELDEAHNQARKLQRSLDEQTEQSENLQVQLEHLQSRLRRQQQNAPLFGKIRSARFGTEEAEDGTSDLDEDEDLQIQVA

B1: TESO1003 (antibody, V domains shown)
VH: QVQLVESGGGVVQPGRSLRLSCAASGFTFSNYDMHWVRQAPGKGLEWVTVVSYDGTNKYYAESVQGRFTISRDNSKNTLYLQMNSLRTEDTAVYYCAKEGGWGNTVTTSYYYYGMDVWGQGTTVTVSS
VL: QIVLTQSPATLSLSPGERATLSCRASQSVSNYLAWYQQKPGQAPRLLIYDASNRATGIPARFSGSGSGTDFTLTISSLEPEDFAVYYCQQRSNWPPYTFGQGTKLDIKR
notes: detected with anti-human IgG Fc
binding result [1]: binds

B2: THNS1006 (antibody, V domains shown)
VH: QVQLVESGGGVVQPGRSLRLSCAASGFTFSSYGMHWVRQAPGKGLEWVAIISYDGSNKYYADSVKGRFTISRDKSKNTLYLQMNSLRAEDTAVYYCAKSKGNYRDAMDVWGQGTTVTVSS
VL: SYVLTQPPSVSVAPGQTARITCGGNNIGSKSVHWYQQKPGQAPVLVVYDDSDRPSGIPERFSGSNSGNTATLTISRVEAGDEADYYCQVWDSSSDPWVFGGGTKLTVLG
notes: as for B1
binding result [2]: binds
binding result [3]: binds

B3: THNS1003 (antibody, V domains shown)
VH: VVQLVESGGGLVQPGGSLRLSCAASGFTFNNYEMNWVRQAPGKGLEWVSYISSSGSTIYYADSVKGRFTISRDNAKNSLYLQMNSLRAEDTAVYYCARQMVTTRGYWGQGTLVTVSS
VL: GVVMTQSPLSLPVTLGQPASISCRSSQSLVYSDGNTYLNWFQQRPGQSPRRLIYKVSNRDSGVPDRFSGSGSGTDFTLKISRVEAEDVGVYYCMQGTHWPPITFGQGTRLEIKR
notes: as for B1
binding result [4]: binds
binding result [5]: binds

Second part, the binder after the results:

binding result [6]: binds
binding result [7]: binds
B4: TCOL1009 (antibody, V domains shown)
VH: PVQLVQSGAEVKKPGASVKVSCKASGDTFPNYVISWVRQAPGQGLEWVGCINTNNGKTNYVQKLQGRVILTTDTSTNTANMELRSLRFDDTAVYYCARERGQVRSYGMDVWGQGTAVTVSS
VL: PYELTQPPSVSVSPGQTANITCSGDKLGDICVCWYQQKPGQSPVLVIYQHNKRPSGIPERFSGSNSGNTATLTISATQATDEAIYYCQSWDSSSVLFGGGTKLTVLG
notes: as for B1

binding result [8]: binds
binding result [9]: binds
B5: TESO1006 (antibody, V domains shown)
VH: QLHLQESGPGLVKPSETLSLTCTVSGGSVSSSSYYWGWVRQPPGKGLEWIGHVYYSGRTYYNPSLKSRATISLDTSKNQFSLKLSSLTATDTAVYYCATIVAAYSYGFEFDPWGQGILVIVSS
VL: QSVLTQPPSVSAAPGQKVTISCSGGSSNIGNNYVSWYQQLPGTAPKLIIYDNDKRPAGIPDRFSGSKSGSSATLGITGLQNGDEAEYYCGTWDSSLGGGVFGGGTKVTVLG
notes: as for B1

binding result [10]: binds
B6: THNS1004 (antibody, V domains shown)
VH: EVQLVESGGGLVQPGGSLRLSCAASGFTFSSNWMSWVRQAPGKGLEWVANIKEDGSEKYYVDSVKGRFTIFRDNAKNSLYLQMNSLRAEDTAVYYCARVPSRYGRSRGAFDIWGQGTMVTVSS
VL: DIQMTQSPSSLSASVGDRVTITCRASQSISSYLNWYQQKPGKAPKLLIYAASSLQSGVPSRFSGSGSGTDFTLAISSLQPEDFATYYCHQTYSTRLTFGGGTEVEIKR
notes: as for B1
